Measurements published in the NTF2 design screens of Basanta et al. (2020).

Assay: protease stability score; higher = more stable; yeast display proteolysis, trypsin and chymotrypsin;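 also: relative to predicted unfolded state with 0 unfolded-like and 1 meaning tenfold more protease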

| Sequence | protease stability score |
| --- | --- |
| TEEEEHTDMVRRIWVEIAKTGDERSWEKYFDPNARMHIFFNGQEIELHGRETITKWLHETLTRIKGLRMEIEHFENIGDKVHMDTRFIIGDKERKSEVEIIVVDGRLKSVTIRHR | 1.78 |
| TEEEEHWKHLVELWLRAVETGDEHLLHRLLDPHVKIDYNGKELHGRETHIKIERHFRERYKGLRWEIKHHEIQGDKAHVDFLLNVNGREHRVRIEIIIVNGRVHQIHFDIN | 2.23 |
| TEEEEILHEELRRHKEALETGDEDRLRHLIDPRARMDVNGREFHGMEHIVHFLVEFLLKFKNVRFEIKDFTKIGEYIYVDIHIIVDGRRHHMTVVALKVDGRWRNRHLHID | 1.18 |
| TEEEEILREAYELFFKMMKTGDEHMKSRLADPNVRLHIGDKENHGMDEVIRVFREEHKRYKNLTLRHWHLEDSHVVNGRIILHYKMNVEVNGVEIETSVHVVIRKINGKWELESLSVE | 0.882 |
| TEEEEIVTRALDKFREDLDTGDWKSIKHNFDPDVRLVFENHSTHGRELAVTIAEHIFKRFDYVHDSRNEHIKFQGDKVEWHSHYDGTINGRRMEVRILLIVRKYNGVWIIEEYLIV | 1.47 |
| TEEEEIYERVARLWAEAMLTGDWKTETNLLDPHTRYDYDVDGKHIHLHGREHFKKMLEDLLRHLRFRIRVEEIHVYGEKVEVHGKLDIHVGDKTTHEHTSVQIYVVNGKMKSIRVHSH | 1.49 |
| TEEEEKSEHLIRLLLHILTTGDEDTYSWLLDPNAKLTFNGVEFHGREDLRRFWEEHLHRLGVDHRDIKDLKRQGDKVIIHNKIHVNGRTIHQEVEIEVINGKAKFNTVILE | 0.412 |
| TEEEEKSWRLAEWFFRIIETGNEHEQKRLADPHVQIHIQIDGRHIHLHGWEELMKELKRLGIKYHKIERLRVIGEKIDEEGRLEINGREHDVRIHILIINGRMNSIHIHIE | 1.66 |
| TEEEEKVMEIIEIILHVLKTGDEHLLENLIDPNARSEYGDKELHGREQILRFAWWVSHHIRLKHLHIDSMRVFNGRIEIHGHNIGEINGRESEIHLSLIMIKVDGQWKIHSMRFE | 1.44 |
| TEEEELAHEALRRFTREWVTGDEDLLQNLLDPHTKIEIDGRELHGWHEMVRYYRHLGFDVNEFHLHRFHIQGDKIRVDGELRFHVDGRTHTIRFTIVARKVNGKWLNTHEHYK | 0.721 |
| TEEEELAHHLVRLLIELWRTGDEEILRHLADPNVKLIYGDKTDHGREKSHRWMKELLDRYDHVEIIIRREEVQGEKAHSDVELVVNINGVREVYEVHLHFIVVNGKIREERIEVR | 0.989 |
| TEEEELEEKIARRFLTIWLTGDEERLRELADPNVRLEIDINGVTLEYHGRDELAHMFDHELKKLGFKHLHLESLRVINGVVHSNVRITFNGQERESKIINIVINGRLHTLILRWE | 1.41 |
| TEEEELLKKFMKDFIQKHVTGDWDSLYKMADPDVKWHINGQQSIGREEVHRMWSEKLKRIDHIEHFHDESIHVIDGRVTLRGRITGNVDGRRYDVEVDFHLFVVDGKLKQFHVHHQ | 0.849 |
| TEEEELLTRLARQILRWLLTGDEDKHSRMLDPRDRSVIGDKESVGMEESVKNWRIWLEEMRLKHVQLRDVRIVDGVVHLDIHLFGHINGVHIDRESRMDVYIVNGRIHRIRIIEH | 1.3 |
| TEEEELRRRHAKELLDIWRTGDEHLMSHLADPHVRSIIDGVTVIGRDEWMKYLRILREHLGVKHIEHKDFNIQGDKVDVHGTMHVNGREIEVRSHFYVIDGRVRSNEIRFH | 0.256 |
| TEEEELSELILELTERMIKTGDEKTLHRLMDPNARTVIGDKQDHGMRTIFNIMEELSERIKNARFSLKHIDVDGDKVKIWSTLNYDGRRWEVEIVARKIDGQWRLEEFRIR | 0.626 |
| TEEEELSRKAAEILDEAQQTGDEDSIRELVDPNVKYEINGRIFVGWQEMLHAFRLELRHIRLREVHIKREKRIGNWMFIDSSMDGEVNGVRTERKSELVFLKFDGQWSLHSMRIE | 1.56 |
| TEEEEMYHKFAHEIARNLVTGDEDRLLELADPHVKSNVNGVELHGMEHFLEFWIHIVKEIRVHLRITHVTVINGVVIHDSEYEFIVNGKRHTTRVEIWWVVVDGRVHRVELRFK | 1.17 |
| TEEEEQIKEMMEEMQHSYKTGDWRAISELLDPNVRMHIGDKEFHGREDLLRVFKHIRVKHLEIHHVRIIDGRAEVETTYTLVVDGVEHVHHTHIHSRKINGRWHIEEVYIH | 2.02 |
| TEEEETARHMVHEFYEVIKTGDEETFRKLLDPNTKLHVNGKERHGREAIDEMYHRFKNVRIHVEHVDVVDGKIDLRENWIQGDKETIVRIEAHKVDGRWELRSVHIH | 1.36 |
| TEEEEYLRKLTKDFIEAFLTGNWKEVARLLDPHTRLHVGEFEIHGREEMMKFMIELITRAGIKHQHIKSFETRIINGVVFLHVHMIVIVNGRNIERRLHVLFVKIDGRWTIEEVSEEHE | 1.46 |
| TEEEHFIKHATELWLRLLRTGDEHELSKMIDPHARVLIGDKNIHGRELASKFLSEFAHQIDHVEIRIKEVRTVDGKVDSDTRLDMHVDGQDIHHETRIISLKVDGKWLLQSFHFD | 0.456 |
| TEEEHIIDDFDKRLLHAFVTGNEDLLAKLADPNVRLSVKIGDKTIERHGMESFRNWLRRFHEEIRIEDHKSDEVRFYNGVLEHHGTVLGHVNGVRTKVHVLEIYFIINGRMRNIWIEVR | 1.54 |
| TEEEHLLKKLAELVWEAVETGDEDFLKKLVDPHTRLHVDGREHHGREDFIEILTRMGVDHHRLEHFRVIDGKLFIDGHFNFNGRYFRVHIIFIIINGRAKEFWMRTE | 1.66 |
| TEEEHLMKEMLDLWVEALMTGDEKLLSELMDPNTRFHLRYGDFLQDRHGRHIINHIIRHWRFHVFKIEDTKVFNGRAIADTHLDVEIDGRRVRTRTKVDLVTINGKIERLDLEID | 0.902 |

| Sequence | protease stability score |
| --- | --- |
| TEEEHLVEEMARRMLHSWLTGDEETLERLLDPNVRLEMIIDGVELRLHGREDMSRWLREWVERVDHVEIEIKRIRLIGEKSILDGQIHERQGDKERVIKTEIIVVVVDGRIHNSKIIIR | 1.14 |
| TEEEHNVRIALSLYIETFKTGNEEVLRRRLDPNARLIFNGRDLHGRELIEDWIHEFHEKVPGLQIHRHEVKDWHVQGNKIDLDVHIDGVFDGKQTETRVILHILKVDGQWIMTVIEIR | 1.35 |
| TEEEHWALHLLERILHHMLTGNESFIKHLFDPDTRWEVNGVENIGMERHSKLFLHMRIESIEIRSIHVRIVGEYIHIDVEIDIRGIVNGQRVEYHKKIHVIISKVNGRWHIKHYHESDE | 1.22 |
| TEEEKDSDDAFRHWVHSMRTGDEDRLRELIDPNARLLVNGRELHGMEWIITILSKEIKELRFKDVRLRDRDIVGNYAEVDVEIDMTIGEKEDSRDVVIFVLKVNGRWVIKEMHIR | 1.46 |
| TEEEKELRHLYNRWLKDLQTGDEDSFRHLADPNVRLIVGDKDHHGWETSAQWMRELRERVDHLEIIVDSSHVINGRIESDTTIRLRVGDKTIEYRAEFEIDIVNGKMKRIVVREH | 0.998 |
| TEEEKEVEDLLRVVIHALQTGDEKKISELVDPNMRVKIGDKINHGWENAFEFHVRFIKELGVDHINIHPRHVRLIGDKVEVHLNLIIHVNGRDHETEIRLTAIKVNGRWHIESFEEQ | 1.91 |
| TEEEKFAEEMLRRFIENLITGDWRELKKLFDPDTKIVFNGREHHGMEWHIEFLREIRITHIEVRDMTLINGVAHANGHEIIIIGDKTLEMDTRINIVTINGRIHSIEIKQR | 2.54 |
| TEEEKHARLVKEHIVEILKTGDEREWMERADPNMYMTVGNKEQHGREQVMHLIERLLKELGIKHSHIKRLELQGDKVHLDVELNFNGVTRDSRLIFIVINGRFHEVIIIIH | 0.947 |
| TEEEKHLRELTDRVLHEEETGDWRTLKELADPNVRFDYRYGDYFFHSHGREDVVKHLRHVFQEMRIERVHVKDRKNYNGKVEIHTEIHGVYNGVRFRTEVTIKIVIIDGRIHSHIWEIN | 0.305 |
| TEEEKIFKKLMHLILNAFLTGDEELLHEYVDPHARVRVGDKEFHGRENIIHALRMLFHHLGIDHIEIDKVDVFNGRMEVHGTFHFDGKNVESILRFDVYNGRLKKEEIEWR | 0.726 |
| TEEEKKSEEFLKKLTHAWRTGNEDTLTHMMDPHVRIDFNGQELIGMEHARRLISELRVEDLEIESITHQGNKVHIRGRDLVLFNGQQRTIDTIFILKKVDGRWIIESIEFR | 1.9 |
| TEEEKLARFAWHLRLHAEETGNEELIETLMDPNVKIDIDINGREIHMIGREEYIRWFNEYGFKHVEHVDEREMRVQGDYLDIRGRVIFHVNGQRIDTETQHHILVVDGRIKEIHDIYH | 1.69 |
| TEEEKMAEKLWEILVKNAQTGDEDKVLKLIDPHTRFTFNGQTHHGRDTFHHLWKILGVDHVEPHSIEVQGDKAHIDSRLYFNGQVRTYTIIVEKINGRWIVTTIDLH | 1 |
| TEEEKSLKEVLERYIKAIRTGDWEILRHLADPRTRMDINGRDIHGMEEITNELVEQIRRFDHIDFKFHHIEVYGDKADVHGTLVIKINGVEIRHSTKEFWYKVNGRWILHHSEIH | 1.21 |
| TEEENMNEENLDLAVHLMHTGDEEHLFDRLDPHARLEYGDKKYHGREIVEEVLLTLIRELGVDHIRVRRVKFVGDKLHIDSEFTVGDKVFRLHLVARKINGRWWLHSMRVQ | 1.34 |
| TEEEQLLKEFAELYLRNWWTGNEDKLLELADPHARSVVNGREIHGRENMYKLIRLWLERFKNIQIHYDDVKFQGNYVKLHGHMTVGDKTTHIIIHILVIDGVIKELSLEVN | 1.56 |
| TEEERDMKHLAELALESFLTGDFEIIKKLADPNVRSVIDGRDYHGMEEVHRYLEELLRMLGVKVSRIEDERLRIINGRVTVETDIRLNVDGKIFRVTLHFFFHKFNGRWRIEEIRIHIE | 0.537 |
| TEEERDSKLAFQLLFKTLETGDEREHREFIDPNMRLHVGNYEFIGWERAVHIMRRIDHVQRIEIEDTYTIGNKVTIDGTDYIEVGDFTERIRSRWIILKVDGKWFIHHVELR | 0.679 |
| TEEERDTKIAVDLFEEYSRTGNEDNMRELADPNVRLKINGVDYVGWKHMTKLLNHWRVKTVNIRHVEIQGDYARSDVEEEVLINGKEDRRTSRLILFKVNGRWIIKSLEFD | 1.28 |
| TEEERDVEKFIRDTLHYLHTGDEDAVAELMDPNVKFIIGDKHLHGMEALEYWSERFDHFHVRRLEIHHFEIINGRVHIELRIWVEVRYNGRIFELEFRSEYIMYKIDGKWVIKHVRHT | 1.56 |
| TEEEREFKEFVEHWMRAIETGDEELLYKLLDPNTQLNYNGVNNHGWHVIKHLEELLGIKVREMRIRDFHHIGDKIVLDVEDIIRIDGRTIILRTEILIVKVDGRWHLKSERVK | 0.965 |
| TEEERHIKEMLELFLEFFKTGNEDLFKELADPHVRLHLNINGKKERVHGMDHAVKWLSQLRVHSFHLKDERAVDGVNEVDQESDVEWNGQRFETTVRLHVYIVNGKLHHLSIEIK | 1.19 |
| TEEERIDHEYEERLKHSFETGDEETIKKMIDPNARVEIDGKDHHGREVMAHLISRIDVLHTVDTTDVSIQGDKINLNLRVHGHVNGKHIDRTLHVRIRKINGKWHIEHFKII | 1.04 |
| TEEERIMLEAIDLLIELWRTGDWKLLDEMVDPRVRIEIGEFTHHGREEYLRILLEEVRRADHRRYHIDHLEIINGRVILNGFIDLTFNGVHLRIREHLVAEKVNGRWLLREIRQR | 1.72 |
| TEEERIRRHAVELWVRSMRTGDEETSVDLADPRTKADINGVEIHGMEIVSKFFREMLEQYDVREFHIHSIDVIGDKVVTDMELILRVGDFENRTHIEFIVHKFDGKWRIEEIRLH | 0.934 |
